Residue numbers refer to the chain shown, from its start.
What was measured:
trypsin = experiment: Phage TRF binding assay on immobilised biotinylated trypsin (monoclonal phage ELISA); details: EETI-II in 5-3 frame, value in brackets after clone name
Description: Phage display technology facilitates isolation of binders to any given target from large combinatorial repertoires based on proteins and peptides that can be presented on the surface of filamentous phage^105. In order to isolate functional knottin-antibody fusions from the KnotBody libraries multiple rounds of phage display selections on trypsin (cognate antigen for the EETI-II donor) were carried out. Phage particles were prepared by rescuing KnotBody libraries using trypsin cleavable helper phage ^102,106Two rounds of phage display selections were performed on 10 µg/ml biotinylated trypsin immobilised on Streptavidin (for Round-1) or Neutravidin (for round-2) coated Maxisorp™ immunotubes (Thermo Scientific, Cat No. 444202). In both rounds of selection, phage libraries were pre-incubated with streptavidin coated paramagnetic beads (Thermo Fisher Scientific, Cat. No. 11205D). These beads were removed prior to the addition the phage to the antigen tubes to limit the streptavidin binders entering the selection. Polyclonal phage preparations from round-2 selection outputs were analysed for trypsin binding using a time resolved fluorescence (TRF) binding assay. In this assay, polyclonal phage binding to biotinylated trypsin immobilised on neutravidin (Thermo Fisher Scientific, Cat. No 31000) coated Maxisorp™ plates (Thermo Scientific, Cat. No. 437111) was detected using a mouse anti-M13 antibody (GE Healthcare, Cat. No. 27-9420-01) followed by europium conjugated anti-mouse antibody (Perkin Elmer, Cat. No. AD0124).
In order to identify monoclonal KnotBodies with desired binding characteristics, 94 individual clones derived from 2 rounds of selection using EETI-II CDR1 or CDR2 libraries were picked into 96 well culture plates and phage were prepared from each clone. Methods for screening by monoclonal phage ELISA are known in the art^107. […] Clones with >3x binding signal above background were picked as positive clones and sequenced to identify unique clones. 14 and 42 unique binders were identified from EETI-II CDR1 and EETI-II CDR2 libraries respectively (Table 1). 18 binders from the EETI-II CDR2 library and 3 binders from the EETI-II-CDR1 library were chosen for further characterisation based on their VL and linker sequence diversity. These binders were assigned new clone identification numbers (Table 2).
The trypsin binding capability of EETI-II is attributed to proline (Pro3) and arginine (Arg4) residues present in its loop1 (GCPRILMRC; SEQ ID NO: 68). […] Monoclonal phage was prepared from the 21 selected clones and their mutant equivalents. […] Replacement of the trypsin-binding residues of EETI-II abolished the ability of all KnotBody clones to bind to trypsin (Table 3). In order to confirm that the loss of trypsin binding was not due to reduced expression or display of pIII fusion phage was prepared from 11 (randomly chosen) KnotBodies and their GlyAla variants were analysed on a western blot using an antibody which recognises the product of gene 3 (pIII) using an anti-pIII antibody (MoBiTec GmbH) (FIG. 6).
Bovine antibodies have been described with natural ultra-long VH CDR3s containing a solvent exposed double stranded antiparallel sheet approximately 20 A° in length (referred to as the stalk) presenting a folded domain stabilised by 3 disulfide bonds (referred to as the Knob)^10. Zhang and colleagues have shown that the Knob domains of these cow ultra-long VH CDR3 antibodies (ULVC-Ab) can be replaced with other folded proteins such as erythropoietin^13. In this example, we assess the ability of a cow ULVC-Ab to present functional knottin fusions on phage in comparison with a KnotBody. In order to create a Knottin-cow UCLA fusion, the sequence between the first and the last cysteines of the knob region of the Cow ULVC-Ab BLV1H12 was replaced with the sequence of the trypsin binding knottin; EETI-II (EETI-II cow ULVC-Ab). A gene fragment encoding this construct was synthesised (Integrated DNA technologies, Table 21). […]

huKv1.3 = target: T1, huKv1.3 (Homo sapiens, UniProt P22001); experiment: QPatch automated whole-cell patch-clamp, CHO cells stably expressing huKv1.3 (Example 8); assay type: cell-based
T1 construct: host or cells: CHO
T1 sequence (P22001 whole entry): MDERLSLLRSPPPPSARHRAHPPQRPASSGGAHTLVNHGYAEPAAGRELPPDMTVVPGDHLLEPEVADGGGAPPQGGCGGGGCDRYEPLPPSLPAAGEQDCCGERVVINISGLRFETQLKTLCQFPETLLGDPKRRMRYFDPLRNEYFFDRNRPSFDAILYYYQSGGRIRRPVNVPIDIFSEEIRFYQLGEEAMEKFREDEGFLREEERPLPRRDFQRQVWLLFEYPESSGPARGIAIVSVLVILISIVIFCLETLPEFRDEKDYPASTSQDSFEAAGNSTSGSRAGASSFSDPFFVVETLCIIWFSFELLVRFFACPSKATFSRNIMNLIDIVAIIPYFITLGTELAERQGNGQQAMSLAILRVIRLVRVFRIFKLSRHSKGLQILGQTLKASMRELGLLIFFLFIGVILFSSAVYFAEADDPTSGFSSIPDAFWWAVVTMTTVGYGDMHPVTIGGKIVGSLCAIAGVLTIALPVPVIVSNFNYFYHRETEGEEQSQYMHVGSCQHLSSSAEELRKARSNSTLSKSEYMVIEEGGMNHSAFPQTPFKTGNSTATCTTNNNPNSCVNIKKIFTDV
Description: (§1) Knottin Kv 1.3 and ASIC1a blockers expressed in the KnotBody format (see examples 6 and 7) were tested for their ability to inhibit the function of the ion channel targets. The effect of these KnotBodies on cells expressing the human Kv 1.3 (huKv1.3) or human ASIC1a channels was assessed using QPatch automated whole-cell patch-clamp electrophysiology (Sophion).
For the testing of Kv1.3, CHO cells stably expressing huKv1.3 (Charles River Lab) were analysed using the QPatch electrophysiology assay in the presence or absence of the KnotBody fusions or the antibody isotypes (negative) controls. Internal and external physiological solutions were freshly prepared prior to the assay. The extracellular solution contained 145 mM NaCl, 4 mM KCl, 2 mM CaCl2, 1 mM MgCl2, 10 mM HEPES and 10 mM glucose; the pH was adjusted to 7.4 with NaOH; the osmolarity was ~ 305 mOsm/L. The intracellular solution contained: KF (120 mM), KCl (20 mM), HEPES (10 mM) and EGTA (10 mM); the pH was adjusted to 7.2 with KOH; osmolarity was ~ 320 mOsm/L.
A series of depolarising voltage (channel activating) pulses were used to monitor the channel currents upon adding control (extracellular solution) to define a control baseline of current activity. To these measured control currents ascending concentrations of KnotBodies or parental antibody isotypes (control molecules) were applied to the external bathing solution (2.2 µM - 0.5 nM, diluted in the extracellular solution). KnotBodies KB_A12 and KB_A07 (EETI-II fusions) were used as isotype controls for the testing. From a holding voltage of -80 mV a depolarising, activating voltage pulses of +30 or +80 mV were applied for 300 ms, every 5 or 10 seconds. The elicited, maximum outward current values measured during the activating step for each solution exchange period were averaged (n = 3 - 8 for each concentration applied) and plotted as concentration-response curves. KB_A07_ShK, KB_A12_ShK and KB_A07_Kaliotoxin (KTX) fusion proteins all inhibited the huKv1.3 currents in a concentration dependent manner with IC50S of approximately 20 nM, 40 nM and 900 nM respectively.

huASIC1a = target: T2, huASIC1a (Homo sapiens, UniProt P78348); experiment: QPatch electrophysiology, HEK293 cells stably expressing huASIC1a; assay type: cell-based; details: ASIC1a current at pH 6.0 after 15-20 minutes KnotBody pre-incubation, 2.3-6.6 µM
T2 construct: host or cells: HEK293
T2 sequence (P78348 1-528): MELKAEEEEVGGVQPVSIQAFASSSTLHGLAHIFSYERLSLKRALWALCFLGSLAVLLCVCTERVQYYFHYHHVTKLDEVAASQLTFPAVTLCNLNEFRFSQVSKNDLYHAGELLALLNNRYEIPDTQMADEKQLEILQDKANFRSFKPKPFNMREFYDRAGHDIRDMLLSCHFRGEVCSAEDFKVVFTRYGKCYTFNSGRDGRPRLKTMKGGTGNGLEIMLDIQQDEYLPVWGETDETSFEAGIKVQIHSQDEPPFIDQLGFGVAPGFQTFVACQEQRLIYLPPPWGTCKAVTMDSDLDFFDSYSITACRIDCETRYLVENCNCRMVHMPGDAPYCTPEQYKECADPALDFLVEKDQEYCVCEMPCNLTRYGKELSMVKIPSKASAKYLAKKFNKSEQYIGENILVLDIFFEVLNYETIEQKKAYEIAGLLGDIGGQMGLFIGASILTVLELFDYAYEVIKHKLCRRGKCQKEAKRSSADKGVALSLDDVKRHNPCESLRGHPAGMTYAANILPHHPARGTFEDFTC
Description: as §1
To functionally assess the ASIC1a KnotBodies, HEK293 cells stably expressing huASIC1a (Sophion) were analysed using a QPatch electrophysiology assay in the presence or absence of the KnotBody fusions (using KB_A12 as a recipient and replacing the original EETI-II donor as shown in Table 8). The “parental” KB_A12 with the EETI-II donor was used as a negative control. Internal and external physiological solutions were freshly prepared prior to the assay. The extracellular solution contained 145 mM NaCl, 4 mM KCl, 2 mM CaCl2, 1 mM MgCl2, 10 mM HEPES and 10 mM glucose; the pH was adjusted to 7.4 with NaOH (for control, resting-state pH) or 6.0 with MES (for acidic, activating-state pH); the osmolarity was ~ 305 mOsm/L. The intracellular solution contained: CsF (140 mM), HEPES (10 mM), NaCl (10 mM) and EGTA/CsOH (1 mM/5 mM); the pH was adjusted to 7.3 with CsOH; osmolarity was ~ 320 mOsm/L.
Throughout ASIC 1a recordings the recording cell membrane voltage was clamped at -60 mV. ASIC1a baseline control currents were elicited by applying external solution at activating pH 6.0 for 3000 ms. This activating pH application was repeated three further times, giving four baseline control ASIC1a currents. The recording cells were then pre-incubated with KnotBody diluted in external solution at pH 7.4 for 15-20 minutes. Following this KnotBody pre-incubation the same concentration of KnotBody in external solution at activating pH 6.0 was applied to the cell recording.
At the end of each KnotBody incubation and subsequent ASIC1a current activation, a full blocking concentration (300 nM) of the ASIC1a knottin inhibitor PcTx1 (positive control) was perfused onto the cell recording and a final activating pH 6.0 external solution was applied. The percentage remaining signal between activating pH 6.0 baseline (i.e. pre-KnotBody) and post-KnotBody incubation was determined.

[1] = Kv1.3 channels, IgG KnotBody, Table 11A
[2] = huKv1.3 currents, text of Example 8, approximately

B1: F01: KnotBody with alternative 5-3 framing of EETI-II, VL CDR2 (protein)
chain: DIQMTQSPSSLSASVGDRVTITCRASQSISSYLNWYQQKPGKAPKLLIDAAGECGPNGFCGSGSDGGVCPRINMRCKQDSDCLAGCGRDSGVPSRFSGSGSGTDFTLTISSLQPEDFATYYCQQSYSTPWTFGQGTKVEIKRT
modifications: F01 (101798)
notes: KnotBody with alternative 5-3 framing of EETI-II, VL CDR2
ELISA signal from monoclonal phage ELISA (trypsin): F01

B2: KB_A07_ShK: ShK toxin in VL CDR2 of KB_A07, IgG1 (antibody, V domains shown)
VH: EVQLVESGGGLVRPGGSLRLSCAASGFTFSSYAMSWVRQAPGKGLEWVSAISGSGGSTYYADSVKGRFTISRDNTKNSLYLQMTSLRADDTAFYYCVKDFGPGYGTGWFDYWGPGTLVTVSS
VL: DIQMTQSPSSLSASVGDRVTITCRASQSISSYLNWYQQKPGKAPKLLIYAAGVRSCIDTIPKSRCTAFQCKHSMKYRLSFCRKTCGTCSRSGVPSRFSGSGSGTDFTLTISSLQPEDFATYYCQQGASPPYTFGQGTKVEIKR
IC50 (huKv1.3; [1]): 40 nM | IC50 (huKv1.3; [2]): ~20 nM

B3: KB_A07_KTX: kaliotoxin in VL CDR2 of KB_A07, IgG1 (antibody, V domains shown)
VH: B2 VH
VL: DIQMTQSPSSLSASVGDRVTITCRASQSISSYLNWYQQKPGKAPKLLIYAAGVGVEINVKCSGSPQCLKPCKDAGMRFGKCMNRKCHCTPKSRSGVPSRFSGSGSGTDFTLTISSLQPEDFATYYCQQGASPPYTFGQGTKVEIKR
IC50 (huKv1.3; [1]): 900 nM | IC50 (huKv1.3; [2]): ~900 nM

B4: KB_A12_Mba-1: Mambalgin-1 in VL CDR2 of KB_A12 (antibody)
VH: B2 VH
VL: QSVLTQPPSVSEAPRQRVTITCSGSSSNIGNNAVNWYQQLPGKAPKLLIYAAGRLKCYQHGKVVTCHRDMKFCYHNTGMPFRNLKLILQGCSSSCSETENNKCCSTDRCNKANSGVSDRFSAAKSGTSASLAINGLRSEDEADYYCAAWDDSLNGYVFGTGTKLTVLGQP
% current remaining (huASIC1a): same level of current as the KB_A12 negative control | % current remaining (huASIC1a; listed as KB A12 Mba-1): 69.2%

B5: KB_A12_PcTx1: PcTx1 in VL CDR2 of KB_A12 (antibody)
VH: B2 VH
VL: QSVLTQPPSVSEAPRQRVTITCSGSSSNIGNNAVNWYQQLPGKAPKLLIYAAGREDCIPKWKGCVNRHGDCCEGLECWKRRRSFEVCVPKTPKTANSGVSDRFSAAKSGTSASLAINGLRSEDEADYYCAAWDDSLNGYVFGTGTKLTVLG
% current remaining (huASIC1a): 4.8%

B6: KB_A12_Mba-2: Mambalgin-2 in VL CDR2 of KB_A12 (antibody)
VH: B2 VH
VL: B4 VL with Y58F
% current remaining (huASIC1a): same level of current as the KB_A12 negative control | % current remaining (huASIC1a; listed as KB A12 Mba-2): 72.4%

B7: KB_A07_PcTx1: PcTx1 in VL CDR2 of KB_A07 (antibody, V domains shown)
VH: B2 VH
VL: DIQMTQSPSSLSASVGDRVTITCRASQSISSYLNWYQQKPGKAPKLLIYAAGVEDCIPKWKGCVNRHGDCCEGLECWKRRRSFEVCVPKTPKTSRSGVPSRFSGSGSGTDFTLTISSLQPEDFATYYCQQGASPPYTFGQGTKVEIKR
% current remaining (huASIC1a): 4.8% | % current remaining (huASIC1a; listed as KB A07 PcTx1): 6.2%

Reference: US20230331827A1, “POTASSIUM CHANNEL INHIBITORS” (priority 2017, published 2023)
